One block for each binder: values may come before it.
Tests used:
4H2839-bN = target: T1, 4H2839-bN; assay: two-hybrid library CCNG1;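 also: natural log of median RNA to DNA barcode read ratio; higher means stronger binding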
T1 chain: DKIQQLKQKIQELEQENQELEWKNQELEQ

4H2915-bN = target: T2, 4H2915-bN; assay: two-hybrid library CCNG1;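 also: natural log of median RNA to DNA barcode read ratio; higher means stronger binding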
T2 chain: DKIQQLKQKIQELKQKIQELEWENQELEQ

4H3057-bN = target: T3, 4H3057-bN; assay: two-hybrid library CCNG1;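 also: natural log of median RNA to DNA barcode read ratio; higher means stronger binding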
T3 chain: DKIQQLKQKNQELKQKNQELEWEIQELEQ

4H319-bN = target: T4, 4H319-bN; assay: two-hybrid library CCNG1;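 also: natural log of median RNA to DNA barcode read ratio; higher means stronger binding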
T4 chain: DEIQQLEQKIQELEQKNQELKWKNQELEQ

4H3277-bN = target: T5, 4H3277-bN; assay: two-hybrid library CCNG1;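 also: natural log of median RNA to DNA barcode read ratio; higher means stronger binding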
T5 chain: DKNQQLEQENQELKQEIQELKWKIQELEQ

4H348-bN = target: T6, 4H348-bN; assay: two-hybrid library CCNG1;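 also: natural log of median RNA to DNA barcode read ratio; higher means stronger binding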
T6 chain: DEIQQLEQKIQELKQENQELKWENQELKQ

4H40-bN = target: T7, 4H40-bN; assay: two-hybrid library CCNG1
T7 chain: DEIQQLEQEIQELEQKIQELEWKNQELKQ

4H477-bN = target: T8, 4H477-bN; assay: two-hybrid library CCNG1
T8 chain: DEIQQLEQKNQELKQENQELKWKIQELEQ

4H492-bN = target: T9, 4H492-bN; assay: two-hybrid library CCNG1
T9 chain: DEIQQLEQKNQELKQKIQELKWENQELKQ

4H741-bN = target: T10, 4H741-bN; assay: two-hybrid library CCNG1
T10 chain: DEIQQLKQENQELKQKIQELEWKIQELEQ

P9SHb = target: T11, P9SHb; assay: two-hybrid library CCNG1
T11 chain: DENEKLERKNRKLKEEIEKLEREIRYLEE

4H2726-AA = target: T12, 4H2726-AA; assay: two-hybrid library CCmax
T12 chain: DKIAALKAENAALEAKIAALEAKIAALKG

4H2935-AA = target: T13, 4H2935-AA; assay: two-hybrid library CCmax; conditions: mean of both orientations
T13 chain: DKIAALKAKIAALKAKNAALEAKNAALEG

4H327-AA = target: T14, 4H327-AA; assay: two-hybrid library CCmax
T14 chain: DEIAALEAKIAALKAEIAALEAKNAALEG

4H3605-AA = target: T15, 4H3605-AA; assay: two-hybrid library CCmax; conditions: mean of both orientations
T15 chain: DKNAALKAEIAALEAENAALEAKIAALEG

4H3625-AA = target: T16, 4H3625-AA; assay: two-hybrid library CCmax; conditions: mean of both orientations
T16 chain: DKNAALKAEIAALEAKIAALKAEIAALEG

4H3664-AA = target: T17, 4H3664-AA; assay: two-hybrid library CCmax; conditions: mean of both orientations
T17 chain: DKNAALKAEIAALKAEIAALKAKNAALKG

4H369-AA = target: T18, 4H369-AA; assay: two-hybrid library CCmax; conditions: mean of both orientations
T18 chain: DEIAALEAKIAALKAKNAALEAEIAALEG

4H3922-AA = target: T19, 4H3922-AA; assay: two-hybrid library CCmax; conditions: mean of both orientations
T19 chain: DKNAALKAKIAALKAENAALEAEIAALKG

4H4033-AA = target: T20, 4H4033-AA; assay: two-hybrid library CCmax; conditions: mean of both orientations
T20 chain: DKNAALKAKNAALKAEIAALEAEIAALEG

4H481-AA = target: T21, 4H481-AA; assay: two-hybrid library CCmax; conditions: mean of both orientations
T21 chain: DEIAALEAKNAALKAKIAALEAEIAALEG

4H55-AA = target: T22, 4H55-AA; assay: two-hybrid library CCmax; conditions: mean of both orientations
T22 chain: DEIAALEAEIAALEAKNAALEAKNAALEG

4H662-AA = target: T23, 4H662-AA; assay: two-hybrid library CCmax; conditions: mean of both orientations
T23 chain: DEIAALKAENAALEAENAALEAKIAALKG

4H3587-AA = target: T24, 4H3587-AA; assay: two-hybrid library CCmax
T24 chain: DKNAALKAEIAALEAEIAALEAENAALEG

4H3590-AA = target: T25, 4H3590-AA; assay: two-hybrid library CCmax; conditions: mean of both orientations
T25 chain: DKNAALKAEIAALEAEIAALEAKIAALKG

4H384-AA = target: T26, 4H384-AA; assay: two-hybrid library CCmax; conditions: mean of both orientations
T26 chain: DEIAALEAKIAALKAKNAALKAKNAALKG

4H3905-AA = target: T27, 4H3905-AA; assay: two-hybrid library CCmax; conditions: mean of both orientations
T27 chain: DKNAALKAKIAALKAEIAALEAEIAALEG

4H4038-AA = target: T28, 4H4038-AA; assay: two-hybrid library CCmax; conditions: mean of both orientations
T28 chain: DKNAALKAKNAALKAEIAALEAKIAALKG

4H43-AA = target: T29, 4H43-AA; assay: two-hybrid library CCmax; conditions: mean of both orientations
T29 chain: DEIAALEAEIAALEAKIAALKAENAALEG

4H451-AA = target: T30, 4H451-AA; assay: two-hybrid library CCmax; conditions: mean of both orientations
T30 chain: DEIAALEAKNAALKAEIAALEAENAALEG

4H510-AA = target: T31, 4H510-AA; assay: two-hybrid library CCmax; conditions: mean of both orientations
T31 chain: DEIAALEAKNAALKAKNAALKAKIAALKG

4H_APH = target: T32, 4H_APH; assay: two-hybrid library CCmax
T32 chain: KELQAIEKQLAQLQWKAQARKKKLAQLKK

4H_BCR = target: T33, 4H_BCR; assay: two-hybrid library CCmax
T33 chain: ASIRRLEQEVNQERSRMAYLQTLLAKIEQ

4H_GCN4 = assay: two-hybrid library CCmax
GCN2_T = assay: two-hybrid library CCmax
O11-AA = target: T34, O11-AA; assay: two-hybrid library CCmax; conditions: mean of both orientations
T34 chain: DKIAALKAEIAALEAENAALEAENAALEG

O13-AA = target: T35, O13-AA; assay: two-hybrid library CCmax; conditions: mean of both orientations
T35 chain: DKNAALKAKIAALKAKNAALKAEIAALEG

O14-AA = target: T36, O14-AA; assay: two-hybrid library CCmax; conditions: mean of both orientations
T36 chain: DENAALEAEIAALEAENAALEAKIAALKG

4H2915-bH = target: T37, 4H2915-bH; assay: two-hybrid library CCNG1
T37 chain: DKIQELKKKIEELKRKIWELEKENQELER

4H3057-bH = target: T38, 4H3057-bH; assay: two-hybrid library CCNG1
T38 chain: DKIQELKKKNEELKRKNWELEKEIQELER

4H319-bH = target: T39, 4H319-bH; assay: two-hybrid library CCNG1
T39 chain: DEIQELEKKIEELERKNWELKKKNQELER

4H3277-bH = target: T40, 4H3277-bH; assay: two-hybrid library CCNG1
T40 chain: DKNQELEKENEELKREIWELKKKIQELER

4H348-bH = target: T41, 4H348-bH; assay: two-hybrid library CCNG1
T41 chain: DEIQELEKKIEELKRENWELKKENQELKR

4H40-bH = target: T42, 4H40-bH; assay: two-hybrid library CCNG1
T42 chain: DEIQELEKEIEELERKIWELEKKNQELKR

4H477-bH = target: T43, 4H477-bH; assay: two-hybrid library CCNG1
T43 chain: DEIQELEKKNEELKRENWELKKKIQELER

4H492-bH = target: T44, 4H492-bH; assay: two-hybrid library CCNG1
T44 chain: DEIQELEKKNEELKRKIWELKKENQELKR

4H741-bH = target: T45, 4H741-bH; assay: two-hybrid library CCNG1
T45 chain: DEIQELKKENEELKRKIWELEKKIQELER

P9A = target: T46, P9A; assay: two-hybrid library CCNG1
T46 chain: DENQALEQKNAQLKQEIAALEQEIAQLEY

Chain of 4H_GCN4 (chain, as listed by the source): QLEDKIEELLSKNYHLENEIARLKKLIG

Binder: DKIQQLKQKIQELEQENQELEWKNQELEQ [4H2839-bN]
interaction score (4H2839-bN): -0.536
interaction score (4H2915-bN): 0.377
interaction score (4H3057-bN): -0.124
interaction score (4H319-bN): 1.51
interaction score (4H3277-bN): -0.558
interaction score (4H348-bN): -0.511
interaction score (4H40-bN): -0.765
interaction score (4H477-bN): -1.55
interaction score (4H492-bN): -0.542
interaction score (4H741-bN): -1.58

Binder: DENEKLERKNRKLKEEIEKLEREIRYLEE [P9SHb]
interaction score (P9SHb): -0.553

Binder: DKIAALKAENAALEAKIAALEAKIAALKG [4H2726-AA]
interaction score (4H2726-AA): 1.36
interaction score (4H2935-AA): -1.45
interaction score (4H327-AA): 0.992
interaction score (4H3605-AA): -0.283
interaction score (4H3625-AA): -0.165
interaction score (4H3664-AA): -1.05
interaction score (4H369-AA): 1.68
interaction score (4H3922-AA): -1.41
interaction score (4H4033-AA): 2.08
interaction score (4H481-AA): 1.94
interaction score (4H55-AA): -1.14
interaction score (4H662-AA): -0.732

Binder: DKNAALKAEIAALEAEIAALEAENAALEG [4H3587-AA]
interaction score (4H3587-AA): -2.04
interaction score (4H3590-AA): -0.934
interaction score (4H3625-AA): -0.634
interaction score (4H384-AA): 1.5
interaction score (4H3905-AA): -0.0465
interaction score (4H4038-AA): -1.05
interaction score (4H43-AA): -0.335
interaction score (4H451-AA): -1.79
interaction score (4H510-AA): -0.509
interaction score (4H_APH): -1.77
interaction score (4H_BCR): -2.15
interaction score (4H_GCN4): -1.87
interaction score (GCN2_T): -2.29
interaction score (O11-AA): -1.13
interaction score (O13-AA): 0.274
interaction score (O14-AA): -1.35

Further lines, results first:

interaction score (4H2915-bH): 0.772
interaction score (4H3057-bH): -0.637
interaction score (4H319-bH): -1.33
interaction score (4H3277-bH): -1.15
interaction score (4H348-bH): -0.507
interaction score (4H40-bH): -1.4
interaction score (4H477-bH): -2.15
interaction score (4H492-bH): -1.59
interaction score (4H741-bH): -0.324
Binder: DKIQELKKKIEELKRKIWELEKENQELER [4H2915-bH]

interaction score (P9A): -1.28
Binder: DENQALEQKNAQLKQEIAALEQEIAQLEY [P9A]

From paper PMC10397247
